Key:
[1] = test system: BATF2 (bZIP);JUNB (human;human); experiment: Spec-seq (EMSA); conditions: 100 nM BATFx-JUNB, 150 nM IRF, 1 uM dsDNA library, 50 mM K acetate, 20 mM Tris-acetate, 10 mM Mg acetate, 100 ug/ml BSA, pH 7.9 (25 C), 10% glycerol, 30 min on …
BATF3;JUNB (human;human) = experiment: Spec-seq (EMSA); conditions: no IRF; 100 nM BATFx-JUNB, 150 nM IRF, 1 uM dsDNA library; 50 mM K acetate, 20 mM Tris-acetate, 10 mM Mg acetate, 100 ug/ml BSA, pH 7.9 (25 C), 10% glycerol; 30 min on …
BATF;JUNB (human;human) = experiment: Spec-seq (EMSA); conditions: no IRF; 100 nM BATFx-JUNB, 150 nM IRF, 1 uM dsDNA library; 50 mM K acetate, 20 mM Tris-acetate, 10 mM Mg acetate, 100 ug/ml BSA, pH 7.9 (25 C), 10% glycerol; 30 min on …
[2] = test system: BATF2 (bZIP);JUNB;IRF8 (human;human;mouse); experiment: Spec-seq (EMSA); conditions: reference; 100 nM BATFx-JUNB, 150 nM IRF, 1 uM dsDNA library; 50 mM K acetate, 20 mM Tris-acetate, 10 mM Mg acetate, 100 ug/ml BSA, pH 7.9 (25 C), 10% glycerol; 30 min on …
[3] = test system: BATF3;JUNB;IRF4 (human;human;human); experiment: Spec-seq (EMSA); conditions: reference; 100 nM BATFx-JUNB, 150 nM IRF, 1 uM dsDNA library; 50 mM K acetate, 20 mM Tris-acetate, 10 mM Mg acetate, 100 ug/ml BSA, pH 7.9 (25 C), 10% glycerol; 30 min on …
[4] = test system: BATF3;JUNB;IRF8 (human;human;mouse); experiment: Spec-seq (EMSA); conditions: reference; 100 nM BATFx-JUNB, 150 nM IRF, 1 uM dsDNA library; 50 mM K acetate, 20 mM Tris-acetate, 10 mM Mg acetate, 100 ug/ml BSA, pH 7.9 (25 C), 10% glycerol; 30 min on …
[5] = test system: BATF;JUNB;IRF8 (human;human;mouse); experiment: Spec-seq (EMSA); conditions: reference; 100 nM BATFx-JUNB, 150 nM IRF, 1 uM dsDNA library; 50 mM K acetate, 20 mM Tris-acetate, 10 mM Mg acetate, 100 ug/ml BSA, pH 7.9 (25 C), 10% glycerol; 30 min on …
[6] = test system: BATF;JUNB;IRF4 (human;human;human); experiment: Spec-seq (EMSA); conditions: reference; 100 nM BATFx-JUNB, 150 nM IRF, 1 uM dsDNA library; 50 mM K acetate, 20 mM Tris-acetate, 10 mM Mg acetate, 100 ug/ml BSA, pH 7.9 (25 C), 10% glycerol; 30 min on …
[7] = test system: BATF2 (bZIP);JUNB;IRF4 (human;human;human); experiment: Spec-seq (EMSA); conditions: reference; 100 nM BATFx-JUNB, 150 nM IRF, 1 uM dsDNA library; 50 mM K acetate, 20 mM Tris-acetate, 10 mM Mg acetate, 100 ug/ml BSA, pH 7.9 (25 C), 10% glycerol; 30 min on …
IRF8 (full length mouse) = molecular target: T1, IRF8 (full length mouse) (mouse, UniProt P23611 1-424); experiment: native gel or EMSA; complex formed on a dsDNA library: 100 nM BATFx-JUNB heterodimer, 150 nM IRF protein, 1 uM dsDNA library in 1x NEB Cutsmart buffer (pH 7.9) with 10% glycerol, 30 min on ice; native 9% PAGE in Tris/Glycine at 4 °C; conditions: both partners purified
T1 construct: IRF8 (interferon regulatory factor 8), mouse, full length; also called IRFx; source: E. coli BL21(DE3), purified (Strep-Tactin Superflow), strep-tag cleaved off by thrombin; not shown: Strep-tag, N-terminal, cleaved
T1 sequence (looked up): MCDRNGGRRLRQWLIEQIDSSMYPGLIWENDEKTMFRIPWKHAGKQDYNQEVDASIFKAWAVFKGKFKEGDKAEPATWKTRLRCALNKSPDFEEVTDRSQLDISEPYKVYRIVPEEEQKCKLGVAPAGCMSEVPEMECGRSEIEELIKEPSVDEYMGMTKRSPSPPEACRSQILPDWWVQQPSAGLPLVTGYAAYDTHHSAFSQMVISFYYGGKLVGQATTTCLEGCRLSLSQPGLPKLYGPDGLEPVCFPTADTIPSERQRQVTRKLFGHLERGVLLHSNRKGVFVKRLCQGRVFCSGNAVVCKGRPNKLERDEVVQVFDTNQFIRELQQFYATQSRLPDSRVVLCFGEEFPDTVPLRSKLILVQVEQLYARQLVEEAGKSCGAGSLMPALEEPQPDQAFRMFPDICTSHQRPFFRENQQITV

IRF4 (full length human) = molecular target: T2, IRF4 (full length human) (human, UniProt Q15306 1-451); experiment: as above; conditions: both partners purified
T2 construct: IRF4 (interferon regulatory factor 4), human, full length; also called IRFx; source: E. coli BL21(DE3), purified (Strep-Tactin Superflow), strep-tag cleaved off by thrombin; not shown: Strep-tag, N-terminal, cleaved
T2 sequence (looked up): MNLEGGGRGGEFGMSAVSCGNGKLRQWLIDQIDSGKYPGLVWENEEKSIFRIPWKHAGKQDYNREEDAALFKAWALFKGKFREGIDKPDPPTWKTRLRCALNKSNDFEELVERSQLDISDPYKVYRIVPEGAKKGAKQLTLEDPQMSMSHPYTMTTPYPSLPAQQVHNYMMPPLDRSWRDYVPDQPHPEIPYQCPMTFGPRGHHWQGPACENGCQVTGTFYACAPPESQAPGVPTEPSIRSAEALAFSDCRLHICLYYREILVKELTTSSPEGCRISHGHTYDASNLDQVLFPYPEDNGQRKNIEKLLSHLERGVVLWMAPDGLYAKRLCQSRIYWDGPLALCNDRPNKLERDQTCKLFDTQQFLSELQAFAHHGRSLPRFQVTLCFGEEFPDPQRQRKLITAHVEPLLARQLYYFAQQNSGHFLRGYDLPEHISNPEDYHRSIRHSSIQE

In the case of CRE (TGACGTCA), the binding signal (kT (-ln bound/unbound)) ([1]; no IRF) is reported as -1.32, the binding signal (kT (-ln bound/unbound)) (BATF3;JUNB (human;human)) is reported as -1.75 and the binding signal (kT (-ln bound/unbound)) (BATF;JUNB (human;human)) is reported as -1.05.

Work on TRE-0sp (TGAGTCAT) yielded a binding signal (kT vs TRE-0sp) [2] of 0, a binding signal (kT vs TRE-0sp) [3] of 0 and a binding signal (kT (-ln bound/unbound)) [1] of -0.903. The binding signal (kT vs TRE-0sp) [4] was 0, the binding signal (kT vs TRE-0sp) [5] was 0 and the binding signal (kT vs TRE-0sp) [6] was 0. The binding signal (kT vs TRE-0sp) [7] was 0 and the binding signal (kT (-ln bound/unbound)) (BATF;JUNB (human;human)) was -1.05.

Work on TRE-1sp (ATGAGTCA) yielded a binding signal (kT (-ln bound/unbound)) [1] of -1.01 and a binding signal (kT (-ln bound/unbound)) (BATF;JUNB (human;human)) of -1.25.

B1: BATF–JUNB hetero-dimer (complex, human)
chain 1: MPHSSDSSDSSFSRSPPPGKQDSSDDVRRVQRREKNRIAAQKSRQRQTQKADTLHLESEDLEKQNAALRKEIKQLTEELKYFTSVLNSHEPLCSVLAASTPSPPEVVYSAHAFHQPHVSSPRFQP
chain 2: KMNHVTPPNVSLGATGGPPAGPGGVYAGPEPPPVYTNLSSYSPASASSGGAGAAVGTGSSYPTTTISYLPHAPPFAGGHPAQLGLGRGASTFKEEPQTVPEARSRDATPPVSPINMEDQERIKVERKRLRNRLAATKCRKRKLERIARLEDKVKTLKAENAGLSSTAGLLREQVAQLKQKVMTHVSNGCQLLLGVKGHAF
notes: BATF, human, full length; Heterodimer formed by co-expression before purification; also called BATFx–JUNB; source: SHuffle T7 Express E. coli, co-expressed, purified (Ni-NTA agarose), mCherry cleaved off with ProTEV Plus; not shown: mCherry, N-terminal, cleaved
B1: binds (IRF8 (full length mouse)); binds (IRF4 (full length human)).

B2: BATF2–JUNB hetero-dimer (complex, human)
chain 1: MHLCGGNGLLTQTDPKEQQRQLKKQKNRAAAQRSRQKHTDKADALHQQHESLEKDNLALRKEIQSLQAELAWWSRTLHVHERLCPMDCASCSAPGLLGCWDQAEGLLGPGPQGQHGCREQLELFQTPGSCYPAQPLSPGPQP
chain 2: B1 chain 2
notes: Heterodimer formed by co-expression before purification; also called BATFx–JUNB; source: SHuffle T7 Express E. coli, co-expressed, purified (Ni-NTA agarose), mCherry cleaved off with ProTEV Plus; not shown: mCherry, N-terminal, cleaved
B2: binds (IRF8 (full length mouse)); binds (IRF4 (full length human)).
